Data: patent publication US20250223614A1

Experiments:
[1] = biological target: Cfa C-intein fused to the N-terminus of the C-terminal fragment of adenosine base editor ABE8.5 (starting at Cas9 position 310); experiment: cell-based or functional assay
[2] = biological target: Gp41.1 C-intein fused to the N-terminus of the C-terminal fragment of adenosine base editor ABE8.5 (starting at Cas9 position 310); experiment: cell-based or functional assay

For “N-terminal fragment of adenosine base editor ABE8.5 (ending at Cas9 position 309) fused at its C-terminus to Cfa N-intein”, the A7G Edit % (Exp. 1); average (N = 4) percent A > G conversion [1] was 48.2%, the A7G Edit % (Exp. 2); average (N = 4) percent A > G conversion [1] was 74.7% and the A7G Edit; average percent A > G conversion measured in Exps. 1-3 [1] was 64.3%. It also gave an A7G Edit; percent A > G conversion (Exp. 3) [1] of 70%.
Work on “N-terminal fragment of adenosine base editor ABE8.5 (ending at Cas9 position 309) fused at its C-terminus to the Gp41.1-SC N-intein” yielded an A7G Edit % (Exp. 1); average (N = 4) percent A > G conversion [2] of 54.9%, an A7G Edit % (Exp. 2); average (N = 4) percent A > G conversion [2] of 72.5% and an A7G Edit; average percent A > G conversion (2 experiments only) [2] of 63.7%.
